Ends that are not written are not given here.
B1: phage P90 (peptide)
peptide: SSADAEKCAGSLLWWGRQNNSGCGSPTKKHLKHRNRSQTSSSSH
modifications: cysteine pairing not given here; also: displayed as N-terminal pIII fusion on M13 phage
notes: M13 phage displaying this insert as N-terminal pIII fusion; whole phage in the ELISA; not shown: M13 pIII coat protein and phage particle (display carrier)
B2: phage PAX45 (peptide)
peptide: SFQVYPDHGLERHALDGTGPLYAMPGRWIRARPQNRDRQ
modifications: also: displayed as N-terminal pIII fusion on M13 phage
notes: M13 phage displaying this insert as N-terminal pIII fusion; whole phage in the ELISA; not shown: M13 phage particle / pIII display carrier (and vector flanks)
B3: phage PAX17 (peptide)
peptide: SQVDSFRNSFRWYEPSRALCHGCGKRDTSTTRIHNSPSDSYPTR
modifications: cysteine pairing not given here; also: displayed as N-terminal pIII fusion on M13 phage
notes: as for B2
B4: phage PAX38 (peptide, not shown: large carriers)
peptide: SSKVSSPRDPTVPRKGGNVDYGCGHRSSARMPTSALSSITKCYT
modifications: cysteine pairing not given here; also: displayed as N-terminal pIII fusion on M13 phage
B5: phage PAX35 (peptide)
peptide: RSITDGGINEVDLSSVSNVLENANSHRAYRKHRPTLKRP
modifications: also: displayed as N-terminal pIII fusion on M13 phage
notes: as for B2
B6: phage PAX43 (peptide, not shown: large carriers)
peptide: RWCEKHKFTAARCSAGAGFERDASRPPQPAHRDNTNRNA
modifications: cysteine pairing not given here; also: displayed as N-terminal pIII fusion on M13 phage
B7: phage PAX46 (peptide)
peptide: SRCTDNEQCPDTGTRSRSVSNARYFSSRLLKTHAPHRP
modifications: cysteine pairing not given here; also: displayed as N-terminal pIII fusion on M13 phage
notes: as for B2
B8: phage P31 (peptide)
peptide: SARDSGPAEDGSRAVRLNGVENANTRKSSRSNPRGRRHP
modifications: also: displayed as N-terminal pIII fusion on M13 phage
notes: as for B1
B9: phage PAX18 (peptide)
peptide: SFLRFQSPRFEDYSRTISRLRNATNPSNVSDAHNNRALA
modifications: also: displayed as N-terminal pIII fusion on M13 phage
notes: as for B2
B10: phage PAX40 (peptide)
peptide: RASTQGGRGVAPEFGASVLGRGCGSATYYTNSTSCKDAMGHNYS
modifications: cysteine pairing not given here; also: displayed as N-terminal pIII fusion on M13 phage
notes: as for B2

Legend:
BSA = BSA (Bos taurus, UniProt P02769); assay: Receptor ELISA of phage on BSA (background control protein); assay type: binding
Procedure: (§1) 96 well plates were coated overnight with GIT receptor, BSA and, optionally, IDE (insulin degrading enzyme, an irrelevant His-fusion protein)or hTF. The plates were blocked for one hour with 0.5% BSA-PBS. After clarification, the amplified phage were diluted 1:100 in 1% BSA plus 0.05% Tween 20 in PBS and added to the plates. Following incubation of the plates on a rotator for 1 to 2 hours, the plates were washed 5 times with 1% BSA plus 0.05% Tween 20 in PBS. Dilute anti-M13-HRP conjugate (anti-M13 antibody linked to horse radish peroxidase (HRP)) was added to all the wells and the plate was incubated for one hour on a rotator. After the plates were washed 5 times, as described above, TMB substrate was added to the wells. The plates were read at 650 nm absorbance.

[1] = system: rat gastro-intestinal tract (closed loop); assay: Transport of preselected phage libraries in rat closed loop, detected by oligonucleotide hybridization/autoradiography; details: D2H pool; in words
Procedure: Four preselected phage libraries, GI-D2H, GI-hSI, GI-HPT1 and GI-hPEPT1, were constructed by pooling phage previously selected by screening random phage display libraries D38 and DC43 using the HPT1, HPEPT1, D2H and hSI receptor or binding sites located in the GIT.
In particular, phages selected in vitro to each receptor or binding site located in the GIT were amplified in E. coli, PEG-precipitated, resuspended in TBS and the titer of each phage sample was determined by plaquing in E. coli as described above. […] Using the in situ loop model described above, 0.5 ml of preselected phage library solution was injected into the tied-off portion of the duodenum/jejunum. Blood was collected into heparinized tubes from the portal vein at 0, 15, 30, 45 and 60 minutes. A blood sample was taken from the systemic circulation at the end of the experiment. Similarly, the portion of the duodenum/jejunum used for phage injection was taken at the end of the experiment.
Thirty microliters of the collected portal blood (neat and 10^−2, 10^−1, 10^−6 dilutions) was added to 30 μl E. coli K91Kan cells (overnight culture) and incubated at 37° C. for 10 min. Subsequently, 3 ml of top agarose was added and the samples were plated for plaques. One hundred microliters of the collected portal blood was added to 100 μl of E. coli K91Kan. Five milliliters of LB medium was then added and the samples were incubated at 37° C. overnight in a rotating microbial incubator. The E. coli was removed by centrifugation and the amplified phage supernatant samples were either titered directly or were PEG-precipitated, resuspended in TBS and titered. Following titration of the amplified phage, samples containing phage from each set of animals were combined, adjusting the titer of each sample to the same titer, and were plated for plaques on LB agar lates (22 cm^2 square plates). Either 12,000 or 24,000 phage were lated for plaques.
Thirty microliters of the collected systemic blood (neat and 10^−2, 10^−1, 10^−6 dilutions) was added to E. coli K91Kan cells, incubated at 37° C. for 10 min. Three ml of top agarose was then added and the samples were plated for plaques. One hundred microliters of the collected systemic blood was added to 100 μl of E. coli K91Kan, incubated at 37° C. for 10 min. Five milliliters of LB medium was then added and the samples were incubated at 37° C. overnight in a rotating microbial incubator. The E. coli was removed by centrifugation and the amplified phage supernatant samples were either titered directly or were PEG-precipitated, resuspended in TBS and titered. Following titration of the amplified phage, samples containing phage from each set of animals were combined, adjusting the titer of each sample to the same titer, and were plated for plaques on LB agar plates (22 cm^2 square plates). Either 12,000 or 24,000 phage were plated for plaques.
The intestinal tissue portion used in each closed loop was excised. […] Alternatively, the tissue (in PBS supplemented with protease inhibitors) was homogenized in an Ultra Thorex homogenizer, washed 3 times in PBS containing protease inhibitors and resuspended in PBS containing protease inhibitors (Int-G samples). In each case, serial dilutions (neat and 10^−2, 10^−4, 10^−6 dilutions) of the tissue homogenate was titered in E. coli.
The phage amplified from the portal blood, systemic blood and intestinal tissue was plated for plaques. […] The filters were air-dried, and the DNA was cross-linked to the filter (UV crosslinking: 2 min, high setting). The filters were incubated in pre-hybridization buffer (6×SSC, 5× Denhardt's solution, 0.1% SDS, […] yeast tRNA) at 40° C.–45° C. for at least 60 min.
Synthetic oligonucleotides, (22-mers), complimentary to regions coding for the receptor or binding sites used to create the preselected phage library, were synthesized (see Table 14 below).

[2] = molecular target: bovine serum albumin (bovine) (UniProt P02769); assay: phage ELISA on coated BSA
[3] = molecular target: T1, recombinant hPEPT1 receptor domain (human PEPT1, amino acid residues 391-571), His-tag fusion protein (human, UniProt P46059 391-571); assay: phage ELISA on coated hPEPT1
T1 construct: purified under denaturing conditions; coated on plates
T1 sequence: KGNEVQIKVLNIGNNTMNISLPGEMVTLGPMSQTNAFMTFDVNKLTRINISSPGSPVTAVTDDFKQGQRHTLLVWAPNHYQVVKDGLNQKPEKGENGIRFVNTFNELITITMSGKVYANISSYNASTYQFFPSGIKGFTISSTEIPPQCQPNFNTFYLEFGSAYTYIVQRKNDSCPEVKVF
Procedure: as §1, with “6.6. Receptor ELISA Procedure 96” for “96”, “Dilute anti-M13-HRP conjugate (anti-M13 antibody linked to horse radish peroxidase (HRP)) was added to all the wells and the plate was incubated for one hour on a rotator.” left out

[4] = molecular target: T1, recombinant hPEPT1 receptor domain …; assay: phage ELISA, OD on hPEPT1 over OD on BSA
Procedure: as §1, with “6.6. Receptor ELISA Procedure 96” for “96”, “Dilute anti-M13-HRP conjugate (anti-M13 antibody linked to horse radish peroxidase (HRP)) was added to all the wells and the plate was incubated for one hour on a rotator.” left out

[5] = molecular target: T2, recombinant hPEPT1 receptor domain (human PEPT1, amino acid residues 391-571), His-tag fusion protein (human) (UniProt P46059); assay: phage ELISA on coated hPEPT1
T2 sequence: T1 sequence

[6] = molecular target: T2, recombinant hPEPT1 receptor domain (human PEPT1, amino acid residues 391-571), His-tag fusion protein (human); assay: phage ELISA, OD on hPEPT1 over OD on BSA
[7] = Table 1, phage panned on hSI, 650 nm
[8] = Table 3, two pans on D2H, third on Caco-2 snapwells

Sequence of bovine serum albumin (bovine) (P02769 25-607 limits assumed): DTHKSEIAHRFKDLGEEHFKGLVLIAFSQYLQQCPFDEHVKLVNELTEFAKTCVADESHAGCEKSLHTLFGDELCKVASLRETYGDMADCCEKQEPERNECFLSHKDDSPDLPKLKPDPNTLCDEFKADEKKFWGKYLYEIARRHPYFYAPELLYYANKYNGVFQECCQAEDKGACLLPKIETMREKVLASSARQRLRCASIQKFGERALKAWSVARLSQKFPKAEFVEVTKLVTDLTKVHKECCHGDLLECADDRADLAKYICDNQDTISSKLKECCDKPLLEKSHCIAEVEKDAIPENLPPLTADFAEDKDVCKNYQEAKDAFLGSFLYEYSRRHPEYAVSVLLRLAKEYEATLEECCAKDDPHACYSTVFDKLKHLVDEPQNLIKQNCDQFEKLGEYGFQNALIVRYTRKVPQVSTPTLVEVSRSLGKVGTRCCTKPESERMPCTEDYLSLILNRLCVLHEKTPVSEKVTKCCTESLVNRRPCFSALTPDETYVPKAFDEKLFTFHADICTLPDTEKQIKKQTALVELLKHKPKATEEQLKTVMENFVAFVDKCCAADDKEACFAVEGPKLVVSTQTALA
Sequence of BSA (P02769 25-607): as the sequence (P02769 25-607 limits assumed) above

| Molecule | OD [2] | OD [3] | PEPT1/BSA [4] | OD [5] | PEPT1/BSA [6] | further results |
| --- | --- | --- | --- | --- | --- | --- |
| RVGQCTDSDVRRPWARSCAHQGCGAGTRNSHGCITRPLRQASAH [SNi10] |  |  |  |  |  | BSA (BSA; [7]): 0.051 OD |
| RYKHDIGCDAGVDKKSSSVRGGCGAHSSPPRAGRGPRGTMVSRL [DCX8] |  |  |  |  |  | BSA (BSA; [8]): 0.063 OD; Presence in the intestinal samples fractions [1]: to a much lesser extent; Transport from the GIT closed loop model into the portal circulation [1]: transported |
| SPCGGSWGRFMQGGLFGGRTDGCGAHRNRTSASLEPPSSDY [SNi34] |  |  |  |  |  | BSA (BSA; [7]): 0.115 OD |
| SQGSKQCMQYRTGRLTVGSEYGCGMNPARHATPAYPARLLPRYR [DCX11] |  |  |  |  |  | BSA (BSA; [8]): 0.071 OD; Presence in the intestinal samples fractions [1]: found; Transport from the GIT closed loop model into the portal circulation [1]: preferably transported |
| B1 | 0.107 OD 650 nm | 1.12 OD 650 nm | 9 ratio |  |  |  |
| B2 | 0.081 OD 650 nm | 0.419 OD 650 nm | 5 ratio |  |  |  |
| RWGWERSPSDYDSDMDLGARRYATRTHRAPPRVLKAPLP (peptide, not shown: large carriers, also: displayed as N-terminal pIII fusion on M13 phage) [phage 5PAX7] | 0.037 OD 650 nm |  |  | 0.171 OD 650 nm | 5 |  |
| SYCRVKGGGEGGHTDSNLARSGCGKVARTSRLQHINPRATPPSR (peptide, not shown: large carriers) [phage PAX15] | 0.079 OD 650 nm |  |  | 0.301 OD 650 nm | 4 |  |
| RPKNVADAYSSQDGAAAEETSHASNAARKSPKHKPLRRP (peptide, not shown: large carriers, also: displayed as N-terminal pIII fusion on M13 phage) [phage 5PAX3] | 0.04 OD 650 nm |  |  | 0.173 OD 650 nm | 4 |  |
| B3 | 0.095 OD 650 nm | 0.514 OD 650 nm | 5 ratio |  |  |  |
| B4 | 0.064 OD 650 nm |  |  | 0.292 OD 650 nm | 5 |  |
| B5 | 0.065 OD 650 nm | 0.474 OD 650 nm | 7 ratio |  |  |  |
| B6 | 0.069 OD 650 nm |  |  | 0.345 OD 650 nm | 5 |  |
| RWPSVGYKGNGSDTIDVHSNDASTKRSLIYNHRRPLFP (peptide, not shown: large carriers) [phage PAX9] | 0.079 OD 650 nm |  |  | 0.312 OD 650 nm | 4 |  |
| RGSTGTAGGERSGVLNLHTRDNASGSGFKPWYPSNRGHK (peptide, not shown: large carriers, also: displayed as N-terminal pIII fusion on M13 phage) [phage 5PAX5] | 0.036 OD 650 nm |  |  | 0.15 OD 650 nm | 4 |  |
| B7 | 0.077 OD 650 nm | 0.429 OD 650 nm | 6 ratio |  |  |  |
| B8 | 0.075 OD 650 nm | 0.807 OD 650 nm | 11 ratio |  |  |  |
| B9 | 0.087 OD 650 nm | 0.416 OD 650 nm | 5 ratio |  |  |  |
| B10 | 0.076 OD 650 nm | 0.461 OD 650 nm | 6 ratio |  |  |  |

Reference: patent US7053177B1, “Random peptides that bind to gastro-intestinal tract (GIT) transport receptors and related methods” (Cytogen Corporation, priority 1997, dated 2006)
